The test concerns the target recombinant human LRP1 ligand binding cluster II (amino acids 786-1165, C-terminal Fc) (human). The test can be described thus: solid-phase binding assay, receptor coated on plate.

Positions of bridges follow the written chain, without caps; N, C: chain ends. No end group written: not given here.

The values below come from patent US20100210517A1.

Usually Kd stands for the equilibrium constant for the complex coming apart.

Chain of recombinant human LRP1 ligand binding cluster II (amino acids 786-1165, C-terminal Fc) (human) (Q07954 786-1165): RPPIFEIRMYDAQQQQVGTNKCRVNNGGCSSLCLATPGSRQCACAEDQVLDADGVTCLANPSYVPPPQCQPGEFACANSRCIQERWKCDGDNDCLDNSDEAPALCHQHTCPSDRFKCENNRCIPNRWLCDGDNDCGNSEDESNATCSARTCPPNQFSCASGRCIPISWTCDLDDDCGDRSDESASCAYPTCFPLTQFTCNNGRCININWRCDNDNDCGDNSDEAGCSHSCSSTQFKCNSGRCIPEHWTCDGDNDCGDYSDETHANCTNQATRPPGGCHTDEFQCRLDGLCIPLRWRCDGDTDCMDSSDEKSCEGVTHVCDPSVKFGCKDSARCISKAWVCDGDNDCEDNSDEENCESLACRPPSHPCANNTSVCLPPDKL

B1: Heptide (peptide)
peptide: CGKHFEAKIEKHNHYQKQLEIAHEKLRHAESVGDAERVSRSREKHALLEGRTKELGYTVKKHLQDACG
modifications: disulfide 1-67 (inferred)
In the case of B1, the dissociation constant (Kd) is 3.5 nM.

B2: mRAP-8c (peptide)
peptide: CGKHFEAKIEKHNHYQKQLEIAHEKLRHAESVGDGERVSRSREKHALLEGRTKELGYTVKKHLQDGC
modifications: disulfide 1-67 (inferred)
On to B2, for which the dissociation constant Kd fell in the range of 4 to 6 nM.

B3: mRAP-14c (peptide)
peptide: CEAKIEKHNHYQKQLEIAHEKLRHAESVGDGERVSRSREKHALLEGRTKELGYTVKKHGC
modifications: disulfide 1-60
On to B3, for which the dissociation constant (Kd) is 21 nM.
